Assay results from paper PMC11358013, “FANCD2–FANCI surveys DNA and recognizes double- to single-stranded junctions” (Nature, 2024).

Tests used:
[1] = target: T1, ybbR-tagged full-length Gallus gallus FANCD2 labelled with Cy3 (Gallus gallus, UniProt Q68Y81 1-1439, modified Cy3 (LD555-CoA) conjugated to the carboxyl-terminal ybbR tag); assay: single-molecule two-colour confocal imaging on optically trapped DNA; 5 nM labelled D2–I loaded on λ DNA held between beads, imaged in the protein-free channel; 20 mM HEPES pH 7.5, 75 mM NaCl, 0.5 mg/ml BSA, 1 mM TCEP; 22 °C; conditions: both partners purified
T1 construct: FANCD2, Gallus gallus, codon-optimized full-length construct; also called FANCD2-Cy3; FANCD2-ybbR; source: Sf9, purified (Strep-Tactin, heparin, Superdex 200), labelled with SFP synthase and gel filtered

[2] = target: T2, Cy3 labelled monoubiquitinated Gallus gallus FANCD2_ybbR (Gallus gallus | , UniProt Q68Y81 1-1439; P0CG48 1-76, monoubiquitinated with His-tagged ubiquitin; Cy3 (LD555-CoA) conjugated to the ybbR tag | joined to a lysine of FANCD2); assay: single-molecule two-colour confocal imaging on optically trapped DNA; ubD2–I formed by incubating purified ubFANCD2 and FANCI with relaxed, optically trapped λ DNA (less than 1 pN), then moved to the protein-free channel; kymographs at 15 pN; conditions: both partners purified
T2 construct: FANCD2, Gallus gallus, full-length ybbR-tagged construct as in m3; ubiquitin, His-tagged, bought from Enzo Life Sciences; also called ubFANCD2; ubFANCD2_ybbR; copies: 1 + 1

binding result [1]: binds
binding result [2]: binds
B1: ybbR-tagged full-length Gallus gallus FANCI labelled with Cy5 (natural protein, UniProt B0I564 1-1338, looked up)
chain: MAQRILQLAAEGSPERLQEALQGLTEGELGDMVTRQALRGRETAALLKGIFKGSPCSQQSGVLRRLQVYKHCVSLVESGDLHVGKVSEIIGLLMLEARQLPGHALAELATLFVEVIKRGSLSNGKSLELFSTVLTALSNSKESLAYGKGELNGEEFKKQLINTLCSSKWDPQCVIHLANMFRDIPLSGEELQFVVEKVLRMFSKLDLQEIPPLVYQLLLLSAKGSKKTVLEGIISFFNQLDKRQKEEQRVPQSADLEVATVPLDQLRHVEGTVILHIVSAINLDQDIGEELIKHLKTEQQKDPGKALCPFSVSLLLSTAVKHRLQEQIFDFLKTSITRSCKDLQILQASKFLQDLCPQQYDVTAVILEVVKNSAFGWDHVTQGLVDLGFSLMESYEPKKSFGGKAAETNLGLSKMPAQQACKLGASILLETFKVHEPIRSDILEQVLNRVLTKAASPVSHFIDLLSNIVVSAPLVLQNSSSRVTETFDNLSFLPIDTVQGLLRAVQPLLKVSMSVRDSLILVLQKAIFSRQLDARKAAVAGFLLLLRNFKILGSLTSSQCSQAIGATQVQADVHACYNSAANEAFCLEILGSLRRCLSQQADVRLMLYEGFYDVLRRNSQLASSIMETLLSQIKQYYLPQQDLLPPLKLEGCIMAQGDQIFLQEPLAHLLCCIQHCLAWYKSTVHLCKGAEDEEEEEDVGFEQNFEEMLESVTRRMIKSELEDFELDKSADFSPSSGVGVKNNIYAIQVMGICEVLIEYNFKIGNFSKNKFEDVLGLFTCYNKLSEILKEKAGKNKSTLGNRIARSFLSMGFVSTLLTALFRDNAQSHEESLAVLRSSTEFMRYAVSVALQKVQQLEEMGQTDGPDGQNPEKMFQNLCKITRVLLWRYTSIPTAVEESGKKKGKSISLLCLEGLLRIFNTMQQLYAARIPQFLQALDITDGDAEEADINVTEKAAFQIRQFQRSLVNQLSSAEDDFNSKETQLLITILSTLSKLLDPGSQQFLQFLTWTVKICKENALEDLSCCKGLLTLLFSLHVLYKSPVSLLRELAQDIHACLGDIDQDVEIESRSHFAIVNVKTAAPTVCLLVLGQADKVLEEVDWLIKRLTILGSDTSEDSTQASNQTQALEKGVILQLGTLLTVFHELVQTALPAGSCVDSLLRSLSKTYAILTSLIKHYIQACRSTSNTVPGRLEKLVKLSGSHLTPQCYSFITYVQNIHSESLSFAEEKKKKKKEDETAVVSTVMAKVLRDTKPIPNLIFAIEQYEKFLIHLSKKSKVNLMQYMKLSTSRDFRINASMLDSVLQEQNTEDAENEPDNNQSGTAEQPDENQEPQKKRRRKK
modifications: modified Cy5 (LD655-CoA) conjugated to the carboxyl-terminal ybbR tag
notes: FANCI, Gallus gallus, full-length; C-terminal extension with a 3C protease site and 6xHis-tag before the ybbR tag; also called FANCI-Cy5; FANCI-ybbR; source: Sf9, purified (HisTrap, heparin, Superdex 200), labelled with SFP synthase and gel filtered
